One experiment concerns the target 1β4α (PDGFRβ/α chimera). Put plainly: ELISA (OD450), panel 'PDGF-AA BINDING TO PDGFRβ/α CHIMERAS'; axis 'CO…ON (nM)', titrated species not stated. For orientation: ELISA stands for enzyme-linked immunosorbent assay.
In a further experiment the target is h5α (human) (UniProt P16234). The experiment is described as above.
Experiment [1] addresses β1-3 (shorter version of PDGFRβ, D1D2D3). Put plainly: ELISA (OD450), panel 'PDGF-BB BINDING TO hPDGFRβ DELETIONS'; axis 'CO…ON (nM)', titrated species not stated.

This passage reports EC50 (read off the curve) results from US20090053241A1.

Sequence of 1β4α (PDGFRβ/α chimera) (P16234 other isoform, or with tags, fused parts or gaps mutant): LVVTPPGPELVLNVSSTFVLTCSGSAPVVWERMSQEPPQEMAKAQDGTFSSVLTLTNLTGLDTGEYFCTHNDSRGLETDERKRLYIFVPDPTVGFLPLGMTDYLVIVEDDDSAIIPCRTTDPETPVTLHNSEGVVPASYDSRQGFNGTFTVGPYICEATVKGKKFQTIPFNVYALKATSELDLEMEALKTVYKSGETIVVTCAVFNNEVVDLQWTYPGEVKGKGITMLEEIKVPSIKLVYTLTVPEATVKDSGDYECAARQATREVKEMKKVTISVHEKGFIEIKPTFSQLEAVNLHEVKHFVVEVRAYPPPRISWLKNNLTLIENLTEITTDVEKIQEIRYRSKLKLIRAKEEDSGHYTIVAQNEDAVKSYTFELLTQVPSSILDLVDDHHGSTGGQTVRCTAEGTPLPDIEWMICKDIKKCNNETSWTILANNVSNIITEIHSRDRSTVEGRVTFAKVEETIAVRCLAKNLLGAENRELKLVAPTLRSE
Sequence of h5α (human) (P16234 24-524 limits assumed): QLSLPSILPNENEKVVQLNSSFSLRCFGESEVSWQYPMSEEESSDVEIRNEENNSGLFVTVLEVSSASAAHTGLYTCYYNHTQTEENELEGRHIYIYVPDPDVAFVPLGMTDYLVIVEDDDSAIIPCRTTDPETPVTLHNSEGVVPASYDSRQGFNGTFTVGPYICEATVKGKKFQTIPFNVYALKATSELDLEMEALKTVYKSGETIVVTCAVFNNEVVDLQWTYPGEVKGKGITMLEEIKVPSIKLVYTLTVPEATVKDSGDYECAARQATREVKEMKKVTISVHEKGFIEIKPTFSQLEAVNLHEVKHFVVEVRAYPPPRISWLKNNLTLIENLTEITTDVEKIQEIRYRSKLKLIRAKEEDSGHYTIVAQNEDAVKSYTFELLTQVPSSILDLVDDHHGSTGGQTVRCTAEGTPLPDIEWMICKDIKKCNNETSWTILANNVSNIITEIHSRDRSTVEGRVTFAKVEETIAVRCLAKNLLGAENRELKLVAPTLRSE
Sequence of PDGF-BB (ligand) (P01127 82-190): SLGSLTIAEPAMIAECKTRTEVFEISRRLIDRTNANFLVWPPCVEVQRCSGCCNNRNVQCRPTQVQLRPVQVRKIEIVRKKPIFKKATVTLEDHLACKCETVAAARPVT

What is called EC50 (read off the curve) is the midpoint of the concentration-response curve. For PDGF-AA (ligand), the EC50 (read off the curve) was 50 pM with 1β4α (PDGFRβ/α chimera) and 20 pM with h5α (human).

In experiment [1], PDGF-BB (ligand) displayed an EC50 (read off the curve) of 60 pM.
